Legend:
HeLa Kyoto [1] = test: melting temperature (median over replicates), in situ; higher = more thermally stable
HeLa Kyoto [2] = test: solubility in G1/S (NP-40 vs SDS abundance) (log2 ratio); higher = more soluble; conditions: cell cycle stage: G1/S
HeLa Kyoto [3] = test: solubility change mitosis vs G1/S (difference of NP-40 vs SDS log2 ratios) (log2 ratio difference); higher = more soluble in mitosis
HeLa Kyoto [4] = test: thermal stability score vs G1/S (z-score of summed log2 fold changes over temperatures); higher = more thermally stable than in G1/S
[5] = cell cycle stage: early G1 (4.5 h after nocodazole release)
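Throughout, for melting temperature (median over replicates), in situ: HeLa Kyoto cells synchronized by double thymidine or nocodazole block, proteins quantified by TMT10plex mass spectrometry, three independent biological replicates.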
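Throughout, for solubility change mitosis vs G1/S (difference of NP-40 vs SDS log2 ratios): synchronized HeLa Kyoto cells (double thymidine block for G1/S, nocodazole release for mitosis), protein amounts in NP-40 versus SDS lysates quantified by mass spectrometry, three biological replicates.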
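Throughout, for solubility in G1/S (NP-40 vs SDS abundance): HeLa Kyoto cells arrested at G1/S by double thymidine block, proteins quantified by TMT10plex mass spectrometry in mild NP-40 versus SDS extracts, three biological replicates.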
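Throughout, for thermal stability score vs G1/S (z-score of summed log2 fold changes over temperatures): synchronized HeLa Kyoto cells, proteins quantified by TMT10plex mass spectrometry, three biological replicates, mitosis taken 0.5 h after nocodazole release, G1/S directly after double thymidine block.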

Sequence	melting temperature (HeLa Kyoto [1]; cell cycle stage: G1/S) [°C]	melting temperature (HeLa Kyoto [1]; cell cycle stage: mitosis) [°C]	solubility in G1/S (log2) (HeLa Kyoto [2])	solubility change mitosis (log2) (HeLa Kyoto [3])	thermal stability score (HeLa Kyoto [4]; [5])	thermal stability score (HeLa Kyoto [4]; cell cycle stage: mitosis)
MLHLSAAPPAPPPEVTATARPCLCSVGRRGDGGKMAAAGALERSFVELSGAERERPRHFREFTVCSIGTANAVAGAVKYSESAGGFYYVESGKLFSVTRNRFIHWKTSGDTLELMEESLDINLLNNAIRLKFQNCSVLPGGVYVSETQNRVIILMLTNQTVHRLLLPHPSRMYRSELVVDSQMQSIFTDIGKVDFTDPCNYQLIPAVPGISPNSTASTAWLSSDGEALFALPCASGGIFVLKLPPYDIPGMVSVVELKQSSVMQRLLTGWMPTAIRGDQSPSDRPLSLAVHCVEHDAFIFALCQDHKLRMWSYKEQMCLMVADMLEYVPVKKDLRLTAGTGHKLRLAYSPTMGLYLGIYMHAPKRGQFCIFQLVSTESNRYSLDHISSLFTSQETLIDFALTSTDIWALWHDAENQTVVKYINFEHNVAGQWNPVFMQPLPEEEIVIRDDQDPREMYLQSLFTPGQFTNEALCKALQIFCRGTERNLDLSWSELKKEVTLAVENELQGSVTEYEFSQEEFRNLQQEFWCKFYACCLQYQEALSHPLALHLNPHTNMVCLLKKGYLSFLIPSSLVDHLYLLPYENLLTEDETTISDDVDIARDVICLIKCLRLIEESVTVDMSVIMEMSCYNLQSPEKAAEQILEDMITIDVENVMEDICSKLQEIRNPIHAIGLLIREMDYETEVEMEKGFNPAQPLNIRMNLTQLYGSNTAGYIVCRGVHKIASTRFLICRDLLILQQLLMRLGDAVIWGTGQLFQAQQDLLHRTAPLLLSYYLIKWGSECLATDVPLDTLESNLQHLSVLELTDSGALMANRFVSSPQTIVELFFQEVARKHIISHLFSQPKAPLSQTGLNWPEMITAITSYLLQLLWPSNPGCLFLECLMGNCQYVQLQDYIQLLHPWCQVNVGSCRFMLGRCYLVTGEGQKALECFCQAASEVGKEEFLDRLIRSEDGEIVSTPRLQYYDKVLRLLDVIGLPELVIQLATSAITEAGDDWKSQATLRTCIFKHHLDLGHNSQAYEALTQIPDSSRQLDCLRQLVVVLCERSQLQDLVEFPYVNLHNEVVGIIESRARAVDLMTHNYYELLYAFHIYRHNYRKAGTVMFEYGMRLGREVRTLRGLEKQGNCYLAALNCLRLIRPEYAWIVQPVSGAVYDRPGASPKRNHDGECTAAPTNRQIEILELEDLEKECSLARIRLTLAQHDPSAVAVAGSSSAEEMVTLLVQAGLFDTAISLCQTFKLPLTPVFEGLAFKCIKLQFGGEAAQAEAWAWLAANQLSSVITTKESSATDEAWRLLSTYLERYKVQNNLYHHCVINKLLSHGVPLPNWLINSYKKVDAAELLRLYLNYDLLEEAVDLVSEYVDAVLGKGHQYFGIEFPLSATAPMVWLPYSSIDQLLQALGENSANSHNIALSQKILDKLEDYQQKVDKATRDLLYRRTL [NUP160]	52.1	49.4	-0.58	0.135	-3.22	-3.66
MAAVLKPVLLGLRDAPVHGSPTGPGAWTASKLGGIPDALPTVAAPRPVCQRCGQPLALVVQVYCPLEGSPFHRLLHVFACACPGCSTGGARSWKVFRSQCLQVPEREAQDAQKQGNSLAAEDWCEGADDWGSDTEEGPSPQFTLDFGNDASSAKDVDWTARLQDLRLQDAVLGAAHPVPPGLPLFLPYYICVADEDDYRDFVNLDHAHSLLRDYQQREGIAMDQLLSQSLPNDGDEKYEKTIIKSGDQTFYKFMKRIAACQEQILRYSWSGEPLFLTCPTSEVTELPACSQCGGQRIFEFQLMPALVSMLKSANLGLSVEFGTILVYTCEKSCWPPNHQTPMEEFCIIQEDPDELLFK [PDCD2L]	48.9	49.8	0.287	0.0741	0.0844	0.849
MATLRRLREAPRHLLVCEKSNFGNHKSRHRHLVQTHYYNYRVSFLIPECGILSEELKNLVMNTGPYYFVKNLPLHELITPEFISTFIKKGSCYALTYNTHIDEDNTVALLPNGKLILSLDKDTYEETGLQGHPSQFSGRKIMKFIVSIDLMELSLNLDSKKYERISWSFKEKKPLKFDFLLAWHKTGSEESTMMSYFSKYQIQEHQPKVALSTLRDLQCPVLQSSELEGTPEVSCRALELFDWLGAVFSNVDLNNEPNNFISTYCCPEPSTVVAKAYLCTITGFILPEKICLLLEHLCHYFDEPKLAPWVTLSVQGFADSPVSWEKNEHGFRKGGEHLYNFVIFNNQDYWLQMAVGANDHCPP [RPP40]	55.5	56.5	-0.386	-0.00249	-1.89	-4.46
MALDGIRMPDGCYADGTWELSVHVTDLNRDVTLRVTGEVHIGGVMLKLVEKLDVKKDWSDHALWWEKKRTWLLKTHWTLDKYGIQADAKLQFTPQHKLLRLQLPNMKYVKVKVNFSDRVFKAVSDICKTFNIRHPEELSLLKKPRDPTKKKKKKLDDQSEDEALELEGPLITPGSGSIYSSPGLYSKTMTPTYDAHDGSPLSPTSAWFGDSALSEGNPGILAVSQPITSPEILAKMFKPQALLDKAKINQGWLDSSRSLMEQDVKENEALLLRFKYYSFFDLNPKYDAIRINQLYEQAKWAILLEEIECTEEEMMMFAALQYHINKLSIMTSENHLNNSDKEVDEVDAALSDLEITLEGGKTSTILGDITSIPELADYIKVFKPKKLTLKGYKQYWCTFKDTSISCYKSKEESSGTPAHQMNLRGCEVTPDVNISGQKFNIKLLIPVAEGMNEIWLRCDNEKQYAHWMAACRLASKGKTMADSSYNLEVQNILSFLKMQHLNPDPQLIPEQITTDITPECLVSPRYLKKYKNKQITARILEAHQNVAQMSLIEAKMRFIQAWQSLPEFGITHFIARFQGGKKEELIGIAYNRLIRMDASTGDAIKTWRFSNMKQWNVNWEIKMVTVEFADEVRLSFICTEVDCKVVHEFIGGYIFLSTRAKDQNESLDEEMFYKLTSGWV [FERMT2]	54.6	55.2	-0.166	-0.119	-0.389	0.267
MFCEKAMELIRELHRAPEGQLPAFNEDGLRQVLEEMKALYEQNQSDVNEAKSGGRSDLIPTIKFRHCSLLRNRRCTVAYLYDRLLRIRALRWEYGSVLPNALRFHMAAEEMEWFNNYKRSLATYMRSLGGDEGLDITQDMKPPKSLYIEVRCLKDYGEFEVDDGTSVLLKKNSQHFLPRWKCEQLIRQGVLEHILS [GINS1]	52.5	51.7	-0.0577	-0.00378	-0.0841	-0.424
MGIQGGSVLFGLLLVLAVFCHSGHSLQCYNCPNPTADCKTAVNCSSDFDACLITKAGLQVYNKCWKFEHCNFNDVTTRLRENELTYYCCKKDLCNFNEQLENGGTSLSEKTVLLLVTPFLAAAWSLHP [CD59]	56.8	64.9	-0.814	-0.0336	-2.05	-3.23
MGRSRSRSSSRSKHTKSSKHNKKRSRSRSRSRDKERVRKRSKSRESKRNRRRESRSRSRSTNTAVSRRERDRERASSPPDRIDIFGRTVSKRSSLDEKQKREEEEKKAEFERQRKIRQQEIEEKLIEEETARRVEELVAKRVEEELEKRKDEIEREVLRRVEEAKRIMEKQLLEELERQRQAELAAQKAREEEERAKREELERILEENNRKIAEAQAKLAEEQLRIVEEQRKIHEERMKLEQERQRQQKEEQKIILGKGKSRPKLSFSLKTQD [ARGLU1]	51	50.4	-1.03	0.866	-5.79	-4.86
